Numbering of substitutions follows the chain as printed. Names and notes keep the numbering of the source.
B1: Murine norovirus MNV-1 capsid protein VP1, V339I escape mutant (in purified virions) (natural protein, murine norovirus (MNV-1, genotype GV.1), UniProt Q80J94 1-541, looked up)
chain: MRMSDGAAPKANGSEASGQDLVPAAVEQAVPIQPVAGAALAAPAAGQINQIDPWIFQNFVQCPLGEFSISPRNTPGEILFDLALGPGLNPYLAHLSAMYTGWVGNMEVQLVLAGNAFTAGKVVVALVPPYFPKGSLTTAQITCFPHVMCDVRTLEPIQLPLLDVRRVLWHATQDQEESMRLVCMLYTPLRTNSPGDESFVVSGRLLSKPAADFNFVYLTPPIERTIYRMVDLPVIQPRLCTHARWPAPVYGLLVDPSLPSNPQWQNGRVHVDGTLLGTTPISGSWVSCFAAEAAYKFQSGTGEVATFTLIEQDGSAYVPGDRAAPLGYPDFSGQLEIEIQTETTKTGDKLKVTTFEMILGPTTNADQAPYQGRVFASVTAAASLDLVDGRVRAVPRSIYGFQDTIPEYNDGLLVPLAPPIGPFLPGEVLLRFRTYMRQIDTADAAAEAIDCALPQEFVSWFASNAFTVQSEALLLRYRNTLTGQLLFECKLYNEGYIALSYSGSGPLTFPTDGIFEVVSWVPRLYQLASVGSLATGRMLKQ
notes: Capsid protein VP1 (~58 kDa; N-terminal, shell and protruding domains) of murine norovirus MNV-1, as it stands in the purified virion, with the escape mutation V339I on the C'D' loop; also called V339I mutant virus; apo V339I; source: BV-2 cells infected with the MNV-1 mutant; virions purified (PEG precipitation, ultracentrifugation, sucrose gradient); copies: 180
B2: Murine norovirus MNV-1 capsid protein VP1, D348E escape mutant (in purified virions) (natural protein, murine norovirus (MNV-1, genotype GV.1), UniProt Q80J94 1-541, looked up)
chain: B1 chain with I339V, D348E
notes: Capsid protein VP1 (~58 kDa; N-terminal, shell and protruding domains) of murine norovirus MNV-1, as it stands in the purified virion, with the escape mutation D348E on the C'D' loop; also called D348E virus; apo D348E; source: BV-2 cells infected with the MNV-1 mutant; virions purified (PEG precipitation, ultracentrifugation, sucrose gradient); copies: 180

Molecular target: the molecule itself
Experiment: cryo-EM structure; purified virions, ~1 mg/mL, in 30 mM HEPES pH 7.4, 100 mM NaCl; nothing, CaCl2 or 10 mM GCDCA added (V339I), nothing added (D348E); icosahedral reconstruction of the capsid

Row | Protein | binding result
1 | B1 | binds
2 | B2 | binds
